Assay results published in US8821836B2, “SPARC binding peptides and uses thereof” (Abraxis BioScience, LLC, priority 2008, dated 2014).

B1: ScFv 2-1: unique ScFv against SPARC from HuScL-2 library, among SEQ ID NOs: 113-116 (protein)
scFv: EVQLLESGGGLVQPGGSLRLSCAASGFTFSSYAMSWVRQAPGKGLEWVSMITPLGSTTAYADSVKGRFTISRDNSKNTLYLQMNSLRAEDTAVYYCAKRAGVFDYWGQGTLVTVSSGGGGSGGGGSGGGGSTDIQMTQSPSSLSASVGDRVTITCRASQSISSYLNWYQQKPGKAPKLLIYRASTLQSGVPSRFSGSGSGTDFTLTISSLQPEDFATYYCQQNDSFPTTFGQGTKVEIKR
B2: ScFv 2-2: unique ScFv against SPARC from HuScL-2 library, among SEQ ID NOs: 113-116 (protein)
scFv: EVQLLESGGGLVQPGGSLRLSCAASGFTFSSYAMSWVRQAPGKGLEWVSHIQGQGRATYYADSVKGRFTISRDNSKNTLYLQMNSLRAEDTAVYYCAKTHGKFDYWGQGTLVTVSSGGGGSGGGGSGGGGSTDIQMTQSPSSLSASVGDRVTITCRASQSISSYLNWYQQKPGKAPKLLIYRASRLQSGVPSRFSGSGSGTDFTLTISSLQPEDFATYYCQQPSGVPTTFGQGTKVEIK
B3: ScFv 3-2: unique ScFv against SPARC from HuScL-3 library, among SEQ ID NOs: 113-116 (protein)
scFv: EIVMTQSPGTLSLSPGDRATLSCRASQSVSGYLAWYQQKPGQAPRLLIYDASNRATGIPARFSGSGSGTDFTLTISSLQAEDVAVYYCQQYYSTLPTFGQGTKLEIKRSGGSTITSYNVYYTKLSSSGTQVQLVQSGGGVVQPGRPLKLSCAASGFTFSSYAMHWVRQAPGKGLEWVAVISYDGSNKYYADSVKGRFTISRDNSKNTLYLQMNSLRAEDTAVYYCARDLSWNDAFDIWGQGTMVTVSSAS

Each molecule was assayed against T1, SPARC (Homo sapiens, UniProt P09486) (assay: scFv phage display screening and soluble scFv ELISA with SPARC as antigen).
T1 sequence (P09486 18-303): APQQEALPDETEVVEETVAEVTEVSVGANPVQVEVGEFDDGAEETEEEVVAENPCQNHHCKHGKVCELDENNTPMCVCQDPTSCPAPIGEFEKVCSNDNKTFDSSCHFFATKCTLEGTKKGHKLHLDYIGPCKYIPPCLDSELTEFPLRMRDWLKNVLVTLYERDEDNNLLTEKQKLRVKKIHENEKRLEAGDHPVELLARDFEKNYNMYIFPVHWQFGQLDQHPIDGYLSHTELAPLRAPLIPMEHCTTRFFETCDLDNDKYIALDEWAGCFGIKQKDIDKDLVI
Type: binding
Description: The overall strategy was to first, screen a human antibody phage display libraries by ELISA with SPARC as antigen.
At the start, HuScL-3® was screened four rounds (three rounds with acidic elution and one round with competitive elution) and 17 positive clones were selected by phage ELISA. […] After that, the binding specificity of the two unique antibodies was validated by soluble scFv ELISA.
Next, HuScL-2® was screened for three rounds (two rounds with trypsin-digestion elution and one round with competitive elution). In the end, 30 positive clones were selected by phage ELISA. According to the sequencing results, 29 clones shared one antibody sequence and the remaining one clone encoded another unique antibody. After that, the binding specificity of these two antibodies was validated by soluble scFv ELISA as well.

SPARC binding of scFv, SPARC binding activity:
B1, B2, B3
